No end group written: not given here.
Legend:
[1] = biological target: FRPR-16 (C. elegans); assay: cell-based or functional assay
[2] = biological target: NPR-10B (C. elegans); assay: cell-based or functional assay

| Binder | EC50 of receptor activation (aequorin calcium luminescence, transfected CHO-K1/Galpha16 cells) [1] | EC50 of receptor activation (aequorin calcium luminescence, transfected CHO-K1/Galpha16 cells) [2] |
| --- | --- | --- |
| SPLGTMRF-NH2 [FLP-3-1 (SPLGTMRFamide)] | 7.4 nM | 262 nM |
| ASEDALFGTMRF-NH2 [FLP-3-5 (ASEDALFGTMRFamide)] | 72.1 nM | 1100 nM |
| TPLGTMRF-NH2 [FLP-3-2 (TPLGTMRFamide)] | 31.7 nM | 366 nM |
| NPLGTMRF-NH2 [FLP-3-4 (NPLGTMRFamide)] | 10.7 nM | 427 nM |
| EAEEPLGTMRF-NH2 [FLP-3-3 (EAEEPLGTMRFamide)] | 288 nM | 867 nM |

Continued, values first:

| EC50 of receptor activation (aequorin calcium luminescence, transfected CHO-K1/Galpha16 cells) [1] | EC50 of receptor activation (aequorin calcium luminescence, transfected CHO-K1/Galpha16 cells) [2] | Binder |
| --- | --- | --- |
| 1600 nM | – | SADDSAPFGTMRF-NH2 [FLP-3-8 (SADDSAPFGTMRFamide)] |
| 88.3 nM | 760 nM | NPENDTPFGTMRF-NH2 [FLP-3-9 (NPENDTPFGTMRFamide)] |
| 39.5 nM | 439 nM | SAEPFGTMRF-NH2 [FLP-3-7 (SAEPFGTMRFamide)] |

Reference: patent US20220380430A1 (WORCESTER POLYTECHNIC INSTITUTE, published 2022)
